B1: Age-related maculopathy susceptibility protein 2 (Homo sapiens), P0C7Q2 (parent)
chain: MLRLYPGPMVTEAEGKGGPEMASLSSSVVPVSFISTLRESVLDPGVGGEGASDKQRSKLSLSHSMIPAAKIHTELCLPAFFSPAGTQRRFQQPQHHLTLSIIHTAAR
partner: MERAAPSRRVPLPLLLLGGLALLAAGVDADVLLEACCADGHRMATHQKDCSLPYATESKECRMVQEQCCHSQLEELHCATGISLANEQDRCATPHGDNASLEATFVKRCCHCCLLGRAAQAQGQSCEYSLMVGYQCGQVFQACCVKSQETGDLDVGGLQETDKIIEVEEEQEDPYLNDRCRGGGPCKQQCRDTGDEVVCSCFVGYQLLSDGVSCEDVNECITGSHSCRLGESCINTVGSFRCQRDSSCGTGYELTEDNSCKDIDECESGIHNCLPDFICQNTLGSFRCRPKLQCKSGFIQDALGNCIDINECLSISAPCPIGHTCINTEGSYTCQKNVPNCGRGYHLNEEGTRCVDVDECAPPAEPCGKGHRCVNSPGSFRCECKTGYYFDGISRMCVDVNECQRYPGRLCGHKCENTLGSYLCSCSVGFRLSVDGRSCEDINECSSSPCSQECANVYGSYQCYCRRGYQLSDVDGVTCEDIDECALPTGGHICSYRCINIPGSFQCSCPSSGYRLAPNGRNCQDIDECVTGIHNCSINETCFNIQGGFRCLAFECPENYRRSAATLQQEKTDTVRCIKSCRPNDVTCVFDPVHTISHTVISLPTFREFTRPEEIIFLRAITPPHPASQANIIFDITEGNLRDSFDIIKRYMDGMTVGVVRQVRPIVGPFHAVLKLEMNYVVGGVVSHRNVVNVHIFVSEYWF
B2: Age-related maculopathy susceptibility protein 2 (Homo sapiens), P0C7Q2 (parent)
chain: B1 chain

Tests used:
[1] = variants of: B1; conditions: with fbln1_human FBLN1, P23142
[2] = variants of: B2; conditions: with psg11_human PSG11, Q9UQ72
psg11_human PSG11, Q9UQ72, sequence (Q9UQ72 whole entry): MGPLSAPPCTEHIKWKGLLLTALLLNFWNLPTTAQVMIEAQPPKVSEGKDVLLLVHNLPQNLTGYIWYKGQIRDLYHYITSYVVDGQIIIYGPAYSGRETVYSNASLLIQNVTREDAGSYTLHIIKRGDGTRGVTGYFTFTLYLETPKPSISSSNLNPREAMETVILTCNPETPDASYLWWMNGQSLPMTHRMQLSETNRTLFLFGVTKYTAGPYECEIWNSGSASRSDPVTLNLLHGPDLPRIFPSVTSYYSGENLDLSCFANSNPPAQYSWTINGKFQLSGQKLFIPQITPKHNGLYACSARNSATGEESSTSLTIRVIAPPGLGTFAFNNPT

[3] = variants of: B2; conditions: with co1a1_human COL1A1, P02452
finc_human FN1, P02751 = variants of: B2; conditions: with finc_human FN1, P02751
finc_human FN1, P02751, sequence (P02751 whole entry): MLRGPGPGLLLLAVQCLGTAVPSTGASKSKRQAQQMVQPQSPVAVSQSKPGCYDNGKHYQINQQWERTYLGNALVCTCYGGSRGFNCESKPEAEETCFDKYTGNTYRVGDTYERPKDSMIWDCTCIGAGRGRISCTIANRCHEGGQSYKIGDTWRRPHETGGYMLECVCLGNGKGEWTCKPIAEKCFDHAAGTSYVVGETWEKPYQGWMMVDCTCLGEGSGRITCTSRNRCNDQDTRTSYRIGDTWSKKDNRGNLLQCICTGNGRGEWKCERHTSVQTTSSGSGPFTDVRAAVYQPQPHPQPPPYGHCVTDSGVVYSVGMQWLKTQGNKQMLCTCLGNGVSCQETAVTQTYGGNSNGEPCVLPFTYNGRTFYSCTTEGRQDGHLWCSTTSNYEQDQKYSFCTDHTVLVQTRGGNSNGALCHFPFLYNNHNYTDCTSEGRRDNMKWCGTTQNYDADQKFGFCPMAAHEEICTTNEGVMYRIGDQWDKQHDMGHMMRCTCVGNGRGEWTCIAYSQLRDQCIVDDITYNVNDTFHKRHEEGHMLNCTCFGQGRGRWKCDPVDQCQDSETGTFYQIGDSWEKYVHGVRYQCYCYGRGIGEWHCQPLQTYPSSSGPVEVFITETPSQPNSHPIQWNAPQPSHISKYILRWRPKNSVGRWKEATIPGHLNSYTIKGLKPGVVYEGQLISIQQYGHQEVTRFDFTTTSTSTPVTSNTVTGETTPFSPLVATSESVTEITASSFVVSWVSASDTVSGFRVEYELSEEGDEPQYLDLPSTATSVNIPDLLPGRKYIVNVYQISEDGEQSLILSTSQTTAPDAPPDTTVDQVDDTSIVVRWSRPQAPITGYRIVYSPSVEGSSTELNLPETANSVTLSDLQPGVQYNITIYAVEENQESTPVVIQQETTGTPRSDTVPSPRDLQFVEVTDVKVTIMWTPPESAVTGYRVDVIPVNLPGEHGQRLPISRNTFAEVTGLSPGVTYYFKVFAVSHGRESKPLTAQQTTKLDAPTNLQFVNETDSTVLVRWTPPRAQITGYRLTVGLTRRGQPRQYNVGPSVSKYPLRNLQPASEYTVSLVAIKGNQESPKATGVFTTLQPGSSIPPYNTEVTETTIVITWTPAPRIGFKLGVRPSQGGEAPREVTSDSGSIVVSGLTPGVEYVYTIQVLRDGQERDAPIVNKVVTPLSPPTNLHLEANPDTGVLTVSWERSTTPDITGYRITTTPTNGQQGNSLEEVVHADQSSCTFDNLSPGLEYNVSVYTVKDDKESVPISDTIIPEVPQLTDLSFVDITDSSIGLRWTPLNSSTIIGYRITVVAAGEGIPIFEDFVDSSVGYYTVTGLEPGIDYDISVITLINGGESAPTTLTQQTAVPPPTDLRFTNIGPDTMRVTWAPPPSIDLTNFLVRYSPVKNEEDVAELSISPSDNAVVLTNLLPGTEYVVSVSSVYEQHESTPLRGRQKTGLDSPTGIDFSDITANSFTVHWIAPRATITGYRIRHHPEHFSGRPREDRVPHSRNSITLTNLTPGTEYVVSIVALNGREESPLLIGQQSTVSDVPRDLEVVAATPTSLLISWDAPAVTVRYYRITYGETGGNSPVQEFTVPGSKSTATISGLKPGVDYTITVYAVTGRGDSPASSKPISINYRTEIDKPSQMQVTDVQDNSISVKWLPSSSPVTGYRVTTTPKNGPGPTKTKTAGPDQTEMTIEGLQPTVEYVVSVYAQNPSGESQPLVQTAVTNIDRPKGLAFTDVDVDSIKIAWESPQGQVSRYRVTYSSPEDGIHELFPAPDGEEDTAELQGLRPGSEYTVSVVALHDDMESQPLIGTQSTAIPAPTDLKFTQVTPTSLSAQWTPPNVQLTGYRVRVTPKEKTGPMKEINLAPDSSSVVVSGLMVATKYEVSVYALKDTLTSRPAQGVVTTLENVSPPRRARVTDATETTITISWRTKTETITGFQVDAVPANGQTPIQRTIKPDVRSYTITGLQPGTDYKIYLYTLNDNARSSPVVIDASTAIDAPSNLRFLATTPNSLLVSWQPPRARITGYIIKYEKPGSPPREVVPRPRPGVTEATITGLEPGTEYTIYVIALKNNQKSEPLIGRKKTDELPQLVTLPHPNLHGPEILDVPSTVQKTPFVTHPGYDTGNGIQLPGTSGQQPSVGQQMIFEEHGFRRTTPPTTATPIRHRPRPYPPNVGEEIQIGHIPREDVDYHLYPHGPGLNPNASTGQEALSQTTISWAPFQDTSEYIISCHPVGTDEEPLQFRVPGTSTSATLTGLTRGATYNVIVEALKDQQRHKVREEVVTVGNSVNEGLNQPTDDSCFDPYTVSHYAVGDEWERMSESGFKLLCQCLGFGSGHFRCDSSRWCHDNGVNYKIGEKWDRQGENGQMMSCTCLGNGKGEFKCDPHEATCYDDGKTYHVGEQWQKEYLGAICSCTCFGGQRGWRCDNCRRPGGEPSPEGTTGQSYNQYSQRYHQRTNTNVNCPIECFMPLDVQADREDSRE

[4] = variants of: B2; conditions: with co4a2_human COL4A2, P08572
co4a2_human COL4A2, P08572, sequence (P08572 whole entry): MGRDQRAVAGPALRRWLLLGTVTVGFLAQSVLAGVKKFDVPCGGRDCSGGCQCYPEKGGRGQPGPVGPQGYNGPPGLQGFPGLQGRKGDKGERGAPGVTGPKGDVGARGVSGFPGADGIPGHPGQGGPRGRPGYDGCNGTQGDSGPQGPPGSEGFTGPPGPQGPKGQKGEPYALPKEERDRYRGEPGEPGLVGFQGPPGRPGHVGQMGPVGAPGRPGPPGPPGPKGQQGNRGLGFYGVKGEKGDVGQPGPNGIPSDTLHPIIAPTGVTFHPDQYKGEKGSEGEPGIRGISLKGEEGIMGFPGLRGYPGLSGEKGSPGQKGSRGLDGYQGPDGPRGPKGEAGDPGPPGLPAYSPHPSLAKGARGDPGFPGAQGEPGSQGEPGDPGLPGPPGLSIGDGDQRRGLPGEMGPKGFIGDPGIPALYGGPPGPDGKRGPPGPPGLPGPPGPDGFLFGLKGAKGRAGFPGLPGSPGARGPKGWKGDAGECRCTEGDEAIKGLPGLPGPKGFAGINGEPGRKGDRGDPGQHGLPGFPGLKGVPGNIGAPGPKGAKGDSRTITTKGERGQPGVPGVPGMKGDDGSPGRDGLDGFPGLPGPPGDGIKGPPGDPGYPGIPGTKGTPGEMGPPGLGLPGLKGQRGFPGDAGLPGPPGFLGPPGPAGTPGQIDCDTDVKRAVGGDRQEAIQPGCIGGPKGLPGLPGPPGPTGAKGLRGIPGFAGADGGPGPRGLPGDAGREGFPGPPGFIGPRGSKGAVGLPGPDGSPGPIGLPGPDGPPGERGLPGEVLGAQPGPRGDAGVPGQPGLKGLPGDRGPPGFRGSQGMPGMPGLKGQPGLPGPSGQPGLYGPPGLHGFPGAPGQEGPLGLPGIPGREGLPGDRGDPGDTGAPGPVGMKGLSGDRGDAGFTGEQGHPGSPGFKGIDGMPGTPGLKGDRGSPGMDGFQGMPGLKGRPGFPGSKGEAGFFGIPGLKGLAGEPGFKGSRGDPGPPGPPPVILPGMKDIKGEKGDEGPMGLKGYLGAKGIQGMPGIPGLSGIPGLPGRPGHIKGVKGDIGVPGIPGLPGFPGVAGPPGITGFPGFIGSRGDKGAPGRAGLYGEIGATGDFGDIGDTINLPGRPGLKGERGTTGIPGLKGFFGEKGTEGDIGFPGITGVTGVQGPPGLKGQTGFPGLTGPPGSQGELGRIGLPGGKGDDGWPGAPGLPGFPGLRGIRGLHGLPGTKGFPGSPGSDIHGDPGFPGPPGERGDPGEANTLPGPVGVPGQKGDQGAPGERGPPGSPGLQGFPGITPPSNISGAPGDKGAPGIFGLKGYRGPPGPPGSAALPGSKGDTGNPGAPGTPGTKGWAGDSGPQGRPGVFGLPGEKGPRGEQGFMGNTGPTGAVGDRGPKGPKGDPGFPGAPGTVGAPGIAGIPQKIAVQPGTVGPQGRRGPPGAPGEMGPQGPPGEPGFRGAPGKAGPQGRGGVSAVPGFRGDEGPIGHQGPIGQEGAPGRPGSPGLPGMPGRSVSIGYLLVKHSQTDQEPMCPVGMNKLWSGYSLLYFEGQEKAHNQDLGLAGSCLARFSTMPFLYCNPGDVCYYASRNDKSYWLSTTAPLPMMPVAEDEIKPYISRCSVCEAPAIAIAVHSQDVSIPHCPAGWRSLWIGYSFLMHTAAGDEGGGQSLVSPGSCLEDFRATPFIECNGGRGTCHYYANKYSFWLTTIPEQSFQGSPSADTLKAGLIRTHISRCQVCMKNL

[5] = variants of: B2; conditions: with emil2_human EMILIN2, Q9BXX0
[6] = variants of: B2; conditions: with hmcn1_human HMCN1, Q96RW7
psg9_human PSG9, Q00887 = variants of: B2; conditions: with psg9_human PSG9, Q00887
psg9_human PSG9, Q00887, sequence (Q00887 whole entry): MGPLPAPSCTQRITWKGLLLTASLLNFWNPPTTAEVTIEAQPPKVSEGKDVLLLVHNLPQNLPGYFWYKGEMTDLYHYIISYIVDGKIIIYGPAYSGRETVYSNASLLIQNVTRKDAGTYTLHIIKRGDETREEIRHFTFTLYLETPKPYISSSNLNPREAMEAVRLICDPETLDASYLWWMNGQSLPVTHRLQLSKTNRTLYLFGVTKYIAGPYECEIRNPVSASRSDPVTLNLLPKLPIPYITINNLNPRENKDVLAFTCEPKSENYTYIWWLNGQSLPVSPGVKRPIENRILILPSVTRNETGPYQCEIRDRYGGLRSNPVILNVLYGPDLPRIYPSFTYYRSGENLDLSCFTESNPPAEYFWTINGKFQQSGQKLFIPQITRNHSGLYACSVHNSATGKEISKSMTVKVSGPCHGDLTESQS

Measured: effect of a mutation on the interaction

A69S
with no effect: [1]

A69S
not listed: [1]
with no effect: all other assays above
